These results are taken from US10731195B2, “Methods for the enzymatic modification of steviol glycosides, modified steviol glycosides obtainable thereby, and the use thereof as sweeteners” (Rijksuniversiteit Groningen, priority 2015, dated 2020).

Changes are numbered by the printed parent chain. Names may count otherwise. Like-named read-outs stand apart in the source and are kept apart here.

The conditions of series [1]: cited from earlier work.
The nature of series [2]: Time course of Rebaudioside A utilization and RebAG1 formation (NP-HPLC). The format is biochemical. Particulars: 1000 mM sucrose, 10 U/mL enzyme. The method, then: (§1) Incubation reactions were performed in 25 mM sodium acetate (pH 4.7), 1 mM CaCl2, 50 to 1,000 mM sucrose, 50-100 mM steviol glycoside, and 2-30 U/mL purified GTF180-ΔN enzyme or GTF180-ΔN mutant enzyme at 37° C. for 15 min to 24 hours. Reactions were stopped by heat inactivation (100° C. for 15 min). From the inactivated samples 250 uL was mixed with 1000 ul of 10 mM catechol (internal standard) and subsequently purified by solid phase extraction using Strata-X 33u Polymeric Reversed Phase columns (Phenomenex). For HPLC analysis 20 μL of the purified sample was injected on a Luna 10 μm NH2 chromatography column (250 mm×4.6 mm; Phenomenex). Reaction components were separated at a flow-rate of 1 mL/min under gradient elution conditions, starting with a 2 min isocratic step of 70% solvent A followed by a linear gradient from 70 to 55% solvent A over 9 min (solvent A=acetonitrile; solvent B=0.025% acetic acid). Rebaudioside A and the mono-α-glucosylated Rebaudioside A product concentrations were determined with NP-HPLC, using their corresponding calibration curves ranging from 1.56 to 50 mM. All data were normalized with catechol as internal standard. The standard deviation of the response was less than 5%. […]

The nature of series [3]: Isolation and structural analysis (NMR, methylation analysis) of α-glucosylated Rebaudioside A products. It is filed as biochemical. Particulars: 10 U/mL enzyme, 50 mM Rebaudioside A, 2 x 1000 mM sucrose, 24 hours. The protocol: For quantitative synthesis of α-glucosylated Rebaudioside A products using GTF180-ΔN and its derived mutants, incubations were performed in 5 mL 25 mM sodium acetate (pH 4.7), 1 mM CaCl2, 50 mM steviol glycoside with two batches of 1,000 mM equivalent of sucrose donor (t=0 and 3 h) to a total of 2,000 mM sucrose, using 10 U/mL enzyme at 37° C. for 24 hours. Products were purified from the incubation mixture by solid phase extraction using Strata-X 33u Polymeric Reversed Phase columns (Phenomenex). Products were separated on a Luna 10 μm NH2 semi-preparative chromatography column (250 mm×10 mm, Phenomenex) and were manually collected at a flow-rate of 4.6 mL/min, starting with a 2 min isocratic step of 80% solvent A followed by a linear gradient of 80 to 50% solvent A over 38 min (solvent A=acetonitrile; solvent B=0.025% acetic acid). The solvent of the collected fractions was evaporated under a stream of nitrogen gas and the dried materials were dissolved in deionized water.
Resolution-enhanced 1D/2D 500-MHz ^1H NMR spectra were recorded in D2O on a Bruker DRX-500 spectrometer (Bijvoet Center, Department of NMR Spectroscopy, Utrecht University) at a probe temperature of 334K. Data acquisition and processing were done with Bruker Topspin 2.1. Prior to analysis, samples were exchanged twice in D2O (99.9 atom % D, Cambridge Isotope Laboratories, Inc., Andover, Mass.) with intermediate lyophilization, and then dissolved in 0.6 mL D2O. […] The 2D TOCSY spectra were recorded using an MLEV-17 (composite pulse devised by Levitt et al (1982)) mixing sequence with spin-lock times of 40-200 ms. The 2D ROESY spectra were recorded using standard Bruker XWINNMR software with mixing time of 200 ms. […] Natural abundance 2D ^13C-^1H HSQC experiments (^1H frequency 500.0821 MHz, ^13C frequency 125.7552 MHz) were recorded without decoupling during acquisition of the ^1H FID. […]

Series [4] can be described thus: Polymerization (oligosaccharide and glucan formation from sucrose) activity. It is filed as biochemical. As to conditions: data not shown. The protocol:
Over a hundred glucan and fructansucrase wild type and mutant enzymes, mostly from Lactobacillus reuteri, were screened for Rebaudioside A α-glucosylation. For this, enzymes were incubated in 50 mM Rebaudioside A (FIG. 1) and 1000 mM sucrose for 3 hours. […] This is a clear advantage during downstream processing, the purification of the α-glucosylated Rebaudioside A products from mono- and disaccharides, oligosaccharides and glucans. By eliminating α-glucan synthesis, the most important side reaction, higher glycosylation yields were obtained for Rebaudioside A. At lower sucrose concentration (200 mM), these mutants had similar or even higher transglucosylating activity with Rebaudioside A than GTF180-ΔN and mutants S1137Y and Q1140E (data not shown).

Series [5] is described as follows: Screening glucan and fructansucrase enzymes for α-glucosylation of Rebaudioside A. It is filed as biochemical. As to conditions: compared to GTF180-ΔN where comparative. The method, then: as §1
Where [6] appears, read: in water and in carbonated beverage base.

For `C=C1C[C@@]23CC[C@H]4[C@@](C)(CCC[C@@]4(C)C(=O)O[C@@H]4O[C@H](CO)[C@@H](O)[C@H](O[C@@H]5O[C@H](CO)[C@@H](O)[C@H](O)[C@H]5O)[C@H]4O[C@@H]4O[C@H](CO)[C@@H](O)[C@H](O)[C@H]4O)[C@@H]2CC[C@]1(O[C@@H]1O[C@H](CO)[C@@H](O)[C@H](O[C@@H]2O[C@H](CO)[C@@H](O)[C@H](O)[C@H]2O)[C@H]1O[C@@H]1O[C@H](CO)[C@@H](O)[C@H](O)[C@H]1O)C3` [Rebaudioside M], in series [1] (in acidified water), the “bitterness compared to Rebaudioside A” value was “reduced bitterness” and the “sweetness compared to Rebaudioside A” value was “higher sweetness”. Also, the “bitterness compared to Rebaudioside A” value in series [1] (in water solution) is “reduced bitterness”.
Regarding `C=C1C[C@@]23CC[C@H]4[C@@](C)(CCC[C@@]4(C)C(=O)O[C@@H]4O[C@H](CO)[C@@H](O)[C@H](O)[C@H]4O[C@@H]4O[C@H](CO)[C@@H](O)[C@H](O)[C@H]4O)[C@@H]2CC[C@]1(O[C@@H]1O[C@H](CO)[C@@H](O)[C@H](O[C@@H]2O[C@H](CO)[C@@H](O)[C@H](O)[C@H]2O)[C@H]1O[C@@H]1O[C@H](CO)[C@@H](O)[C@H](O)[C@H]1O)C3` [Rebaudioside D], in series [1] (setting [6]), the “bitterness compared to Rebaudioside A” value was “decreased bitterness” and the “sweetness compared to Rebaudioside A” value is given as “increased sweetness”.

B1: GTF180-ΔN: N-terminal truncated GTF180 (AY697430) of Lactobacillus reuteri 180; Met-Gly-742-1772-His6 (protein, listed as Lactobacillus reuteri)
chain: MGINGQQYYIDPTTGQPRKNFLLQNGNDWIYFDKDTGAGTNALKLQFDKGTISADEQYRRGNEAYSYDDKSIENVNGYLTADTWYRPKQILKDGTTWTDSKETDMRPILMVWWPNTVTQAYYLNYMKQYGNLLPASLPSFSTDADSAELNHYSELVQQNIEKRISETGSTDWLRTLMHEFVTKNSMWNKDSENVDYGGLQLQGGFLKYVNSDLTKYANSDWRLMNRTATNIDGKNYGGAEFLLANDIDNSNPVVQAEELNWLYYLMNFGTITGNNPEANFDGIRVDAVDNVDVDLLSIARDYFNAAYNMEQSDASANKHINILEDWGWDDPAYVNKIGNPQLTMDDRLRNAIMDTLSGAPDKNQALNKLITQSLVNRANDNTENAVIPSYNFVRAHDSNAQDQIRQAIQAATGKPYGEFNLDDEKKGMEAYINDQNSTNKKWNLYNMPSAYTILLTNKDSVPRVYYGDLYQDGGQYMEHKTRYFDTITNLLKTRVKYVAGGQTMSVDKNGILTNVRFGKGAMNATDTGTDETRTEGIGVVISNNTNLKLNDGESVVLHMGAAHKNQKYRAVILTTEDGVKNYTNDTDAPVAYTDANGDLHFTNTNLDGQQYTAVRGYANPDVTGYLAVWVPAGAADDQDARTAPSDEAHTTKTAYRSNAALDSNVIYEGFSNFIYWPTTESERTNVRIAQNADLFKSWGITTFELAPQYNSSKDGTFLDSIIDNGYAFTDRYDLGMSTPNKYGSDEDLRNALQALHKAGLQAIADWVPDQIYNLPGKEAVTVTRSDDHGTTWEVSPIKNVVYITNTIGGGEYQKKYGGEFLDTLQKEYPQLFSQVYPVTQTTIDPSVKIKEWSAKYFNGTNILHRGAGYVLRSNDGKYYNLGTSTQQFLPSQLSVQDNEGYGFVKEGNNYHYYDENKQMVKDAFIQDSVGNWYYLDKNGNMVANQSPVEISSNGASGTYLFLNNGTSFRSGLVKTDAGTYYYDGDGRMVRNQTVSDGAMTYVLDENGKLVSESFDSSATEAHPLKPGDLNGQK
In the case of B1, the “Rebaudioside A conversion” value in series [2] (50 mM Rebaudioside A) amounted to 55%. Further, the “RebAG1 formed from 50 mM Rebaudioside A” value in series [2] was around 13 mM. Besides, in series [3], the “share of di-glucosylated Rebaudioside A product elongated with an (α1→3)-linked glucose” value is listed as around 75%, the “share of di-glucosylated Rebaudioside A product elongated with another (α1→6)-linked glucose” value is listed as around 25% and the “share of mono-α-glucosylated product with (α1→6)-linked glucose at the C-19 β-linked glucose” value was found to be 100%.

B2: GTF180-ΔN-XM2: single amino acid mutant (W1065L) of GTF180-ΔN (protein, listed as Lactobacillus reuteri)
chain: B1 chain with W326L
B2: the “polymerization (oligosaccharide and glucan formation) activity” value in series [4] is given as “almost no polymerization”. The “α-glucosylation / transglucosylating activity towards Rebaudioside A (in words)” value in series [5] was “able to α-glucosylate Rebaudioside A”.
